Measurements reported in patent US20210388087A1 (Chugai, published 2021).
Where a chain is given by its changes, count along the chain named.

B1: GLS3000 H34N (antibody, name in Kabat numbering, V domains shown)
VH: QVQLVESGGGVVQPGRSLRLSCAASGFTFSNAWMHWVRQAPGKGLEWVAQIKAKSNNYATYYAESVKGRFTISRDDSKNSLYLQMNSLKTEDTAVYYCRYVHYGAYYGVDAWGQGTTVTVSS
VL: DIVMTQSPLSLPVTPGEPASISCRSSQSLVHSNRNTYLNWYQQKPGQAPRLLIYKVSNRFSGVPDRFSGSGSGTDFTLKISRVEAEDVGVYYCGQGTQVPYTFGQGTKLEIK
notes: one-arm IgG as m2
B2: GLS3000 H34P (antibody, name in Kabat numbering, V domains shown)
VH: B1 VH
VL: B1 VL with N39P
notes: one-arm IgG as m2
B3: GLS3000 H34Q (antibody, name in Kabat numbering, V domains shown)
VH: B1 VH
VL: B1 VL with N39Q
notes: one-arm IgG as m2
B4: GLS3000 H34R (antibody, name in Kabat numbering, V domains shown)
VH: B1 VH
VL: B1 VL with N39R
notes: one-arm IgG as m2
B5: GLS3000 H34S (antibody, name in Kabat numbering, V domains shown)
VH: B1 VH
VL: B1 VL with N39S
notes: one-arm IgG as m2
B6: GLS3000 H34T (antibody, name in Kabat numbering, V domains shown)
VH: B1 VH
VL: B1 VL with N39T
notes: one-arm IgG as m2
B7: GLS3000 H34V (antibody, name in Kabat numbering, V domains shown)
VH: B1 VH
VL: B1 VL with N39V
notes: one-arm IgG as m2
B8: GLS3000 H34W (antibody, name in Kabat numbering, V domains shown)
VH: B1 VH
VL: B1 VL with N39W
notes: one-arm IgG as m2
B9: GLS3000 H34Y (antibody, name in Kabat numbering, V domains shown)
VH: B1 VH
VL: B1 VL with N39Y
notes: one-arm IgG as m2
B10: GLS3000 K50A (antibody, name in Kabat numbering, V domains shown)
VH: B1 VH
VL: B1 VL with N39H, K55A
notes: one-arm IgG as m2
B11: GLS3000 K50D (antibody, name in Kabat numbering, V domains shown)
VH: B1 VH
VL: B1 VL with N39H, K55D
notes: one-arm IgG as m2
B12: GLS3000 K50E (antibody, name in Kabat numbering, V domains shown)
VH: B1 VH
VL: B1 VL with N39H, K55E
notes: one-arm IgG as m2
B13: GLS3000 K50G (antibody, name in Kabat numbering, V domains shown)
VH: B1 VH
VL: B1 VL with N39H, K55G
notes: one-arm IgG as m2
B14: GLS3000 K50L (antibody, name in Kabat numbering, V domains shown)
VH: B1 VH
VL: B1 VL with N39H, K55L
notes: one-arm IgG as m2
B15: GLS3000 K50P (antibody, name in Kabat numbering, V domains shown)
VH: B1 VH
VL: B1 VL with N39H, K55P
notes: one-arm IgG as m2
B16: GLS3000 K50Q (antibody, name in Kabat numbering, V domains shown)
VH: B1 VH
VL: B1 VL with N39H, K55Q
notes: one-arm IgG as m2
B17: GLS3000 K50R (antibody, name in Kabat numbering, V domains shown)
VH: B1 VH
VL: B1 VL with N39H, K55R
notes: one-arm IgG as m2
B18: GLS3000 K50S (antibody, name in Kabat numbering, V domains shown)
VH: B1 VH
VL: B1 VL with N39H, K55S
notes: one-arm IgG as m2
B19: GLS3000 K50T (antibody, name in Kabat numbering, V domains shown)
VH: B1 VH
VL: B1 VL with N39H, K55T
notes: one-arm IgG as m2
B20: GLS3000 K50Y (antibody, name in Kabat numbering, V domains shown)
VH: B1 VH
VL: B1 VL with N39H, K55Y
notes: one-arm IgG as m2
B21: GLS3000 K74T (antibody, name in Kabat numbering, V domains shown)
VH: B1 VH
VL: B1 VL with N39H, K79T
notes: one-arm IgG as m2
B22: GLS3000 K107E (antibody, name in Kabat numbering, V domains shown)
VH: B1 VH
VL: B1 VL with N39H, K112E
notes: one-arm IgG as m2
B23: GLS3000 L27bD (antibody, name in Kabat numbering, V domains shown)
VH: B1 VH
VL: B1 VL with L29D, N39H
notes: one-arm IgG as m2
B24: GLS3000 L27bE (antibody, name in Kabat numbering, V domains shown)
VH: B1 VH
VL: B1 VL with L29E, N39H
notes: one-arm IgG as m2
B25: GLS3000 L27bF (antibody, name in Kabat numbering, V domains shown)
VH: B1 VH
VL: B1 VL with L29F, N39H
notes: one-arm IgG as m2
B26: GLS3000 L27bI (antibody, name in Kabat numbering, V domains shown)
VH: B1 VH
VL: B1 VL with L29I, N39H
notes: one-arm IgG as m2
B27: GLS3000 L27bM (antibody, name in Kabat numbering, V domains shown)
VH: B1 VH
VL: B1 VL with L29M, N39H
notes: one-arm IgG as m2
B28: GLS3000 L27bP (antibody, name in Kabat numbering, V domains shown)
VH: B1 VH
VL: B1 VL with L29P, N39H
notes: one-arm IgG as m2
B29: GLS3000 L27bS (antibody, name in Kabat numbering, V domains shown)
VH: B1 VH
VL: B1 VL with L29S, N39H
notes: one-arm IgG as m2
B30: GLS3000 L27bV (antibody, name in Kabat numbering, V domains shown)
VH: B1 VH
VL: B1 VL with L29V, N39H
notes: one-arm IgG as m2
B31: GLS3000 L27bW (antibody, name in Kabat numbering, V domains shown)
VH: B1 VH
VL: B1 VL with L29W, N39H
notes: one-arm IgG as m2
B32: GLS3000 L27bY (antibody, name in Kabat numbering, V domains shown)
VH: B1 VH
VL: B1 VL with L29Y, N39H
notes: one-arm IgG as m2
B33: GLS3000 L33A (antibody, name in Kabat numbering, V domains shown)
VH: B1 VH
VL: B1 VL with L38A, N39H
notes: one-arm IgG as m2
B34: GLS3000 L33D (antibody, name in Kabat numbering, V domains shown)
VH: B1 VH
VL: B1 VL with L38D, N39H
notes: one-arm IgG as m2
B35: GLS3000 L33E (antibody, name in Kabat numbering, V domains shown)
VH: B1 VH
VL: B1 VL with L38E, N39H
notes: one-arm IgG as m2
B36: GLS3000 L33F (antibody, name in Kabat numbering, V domains shown)
VH: B1 VH
VL: B1 VL with L38F, N39H
notes: one-arm IgG as m2
B37: GLS3000 L33I (antibody, name in Kabat numbering, V domains shown)
VH: B1 VH
VL: B1 VL with L38I, N39H
notes: one-arm IgG as m2
B38: GLS3000 L33M (antibody, name in Kabat numbering, V domains shown)
VH: B1 VH
VL: B1 VL with L38M, N39H
notes: one-arm IgG as m2
B39: GLS3000 L33P (antibody, name in Kabat numbering, V domains shown)
VH: B1 VH
VL: B1 VL with L38P, N39H
notes: one-arm IgG as m2
B40: GLS3000 L33V (antibody, name in Kabat numbering, V domains shown)
VH: B1 VH
VL: B1 VL with L38V, N39H
notes: one-arm IgG as m2
B41: GLS3000 N28A (antibody, name in Kabat numbering, V domains shown)
VH: B1 VH
VL: B1 VL with N33A, N39H
notes: one-arm IgG as m2
B42: GLS3000 N28D (antibody, name in Kabat numbering, V domains shown)
VH: B1 VH
VL: B1 VL with N33D, N39H
notes: one-arm IgG as m2
B43: GLS3000 N28E (antibody, name in Kabat numbering, V domains shown)
VH: B1 VH
VL: B1 VL with N33E, N39H
notes: one-arm IgG as m2
B44: GLS3000 N28F (antibody, name in Kabat numbering, V domains shown)
VH: B1 VH
VL: B1 VL with N33F, N39H
notes: one-arm IgG as m2
B45: GLS3000 N28G (antibody, name in Kabat numbering, V domains shown)
VH: B1 VH
VL: B1 VL with N33G, N39H
notes: one-arm IgG as m2
B46: GLS3000 N28H (antibody, name in Kabat numbering, V domains shown)
VH: B1 VH
VL: B1 VL with N33H, N39H
notes: one-arm IgG as m2

target: T1, CD3 epsilon homodimer protein (UniProt P07766 23-126); assay: SPR Biacore T200, CD3e homodimer on chip, vs unaltered GLS3000 antibody
T1 construct: also called CD3 (CD3 epsilon)
T1 sequence (P07766 23-126): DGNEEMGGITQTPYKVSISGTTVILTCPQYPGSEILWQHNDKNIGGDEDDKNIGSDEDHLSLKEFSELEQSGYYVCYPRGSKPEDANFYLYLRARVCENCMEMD

Question: B1 was tested. Which “ratio of amounts bound (Z=Y/X)” value did it give?
Answer: 0.65

Question: How did the “ratio of amounts bound (Z=Y/X)” value turn out when B2 was run?
Answer: 0.34

Question: Which “ratio of amounts bound (Z=Y/X)” value does the source give for B3 here?
Answer: 0.25

Question: For B4, which “ratio of amounts bound (Z=Y/X)” value is on record?
Answer: 0.2

Question: Which “ratio of amounts bound (Z=Y/X)” value does the source give for B5 here?
Answer: 0.78

Question: With B6 as the binder, how does the “ratio of amounts bound (Z=Y/X)” value read?
Answer: 0.89

Question: Which “ratio of amounts bound (Z=Y/X)” value does the source give for B7 here?
Answer: 0.85

Question: B8 was tested. Which “ratio of amounts bound (Z=Y/X)” value did it give?
Answer: 0.24

Question: For B9, which “ratio of amounts bound (Z=Y/X)” value is on record?
Answer: 0.59

Question: With B10 as the binder, how does the “ratio of amounts bound (Z=Y/X)” value read?
Answer: 0.23

Question: How did the “ratio of amounts bound (Z=Y/X)” value turn out when B11 was run?
Answer: 0.22

Question: B12 was tested. Which “ratio of amounts bound (Z=Y/X)” value did it give?
Answer: 0.24

Question: For B13, which “ratio of amounts bound (Z=Y/X)” value is on record?
Answer: 0.16

Question: With B14 as the binder, how does the “ratio of amounts bound (Z=Y/X)” value read?
Answer: 0.24

Question: How did the “ratio of amounts bound (Z=Y/X)” value turn out when B15 was run?
Answer: 0.3

Question: With B16 as the binder, how does the “ratio of amounts bound (Z=Y/X)” value read?
Answer: 0.18

Question: With B17 as the binder, how does the “ratio of amounts bound (Z=Y/X)” value read?
Answer: 0.5

Question: How did the “ratio of amounts bound (Z=Y/X)” value turn out when B18 was run?
Answer: 0.23

Question: How did the “ratio of amounts bound (Z=Y/X)” value turn out when B19 was run?
Answer: 0.19

Question: For B20, which “ratio of amounts bound (Z=Y/X)” value is on record?
Answer: 0.24

Question: For B21, which “ratio of amounts bound (Z=Y/X)” value is on record?
Answer: 0.84

Question: B22 was tested. Which “ratio of amounts bound (Z=Y/X)” value did it give?
Answer: 0.94

Question: How did the “ratio of amounts bound (Z=Y/X)” value turn out when B23 was run?
Answer: 0.17

Question: How did the “ratio of amounts bound (Z=Y/X)” value turn out when B24 was run?
Answer: 0.17

Question: Which “ratio of amounts bound (Z=Y/X)” value does the source give for B25 here?
Answer: 0.42

Question: How did the “ratio of amounts bound (Z=Y/X)” value turn out when B26 was run?
Answer: 1.19

Question: Which “ratio of amounts bound (Z=Y/X)” value does the source give for B27 here?
Answer: 0.71

Question: With B28 as the binder, how does the “ratio of amounts bound (Z=Y/X)” value read?
Answer: 0.91

Question: Which “ratio of amounts bound (Z=Y/X)” value does the source give for B29 here?
Answer: 0.71

Question: For B30, which “ratio of amounts bound (Z=Y/X)” value is on record?
Answer: 1.12

Question: For B31, which “ratio of amounts bound (Z=Y/X)” value is on record?
Answer: 0.26

Question: Which “ratio of amounts bound (Z=Y/X)” value does the source give for B32 here?
Answer: 0.25

Question: With B33 as the binder, how does the “ratio of amounts bound (Z=Y/X)” value read?
Answer: 0.85

Question: B34 was tested. Which “ratio of amounts bound (Z=Y/X)” value did it give?
Answer: 0.17

Question: For B35, which “ratio of amounts bound (Z=Y/X)” value is on record?
Answer: 0.72

Question: How did the “ratio of amounts bound (Z=Y/X)” value turn out when B36 was run?
Answer: 0.78

Question: B37 was tested. Which “ratio of amounts bound (Z=Y/X)” value did it give?
Answer: 0.83

Question: How did the “ratio of amounts bound (Z=Y/X)” value turn out when B38 was run?
Answer: 0.93

Question: B39 was tested. Which “ratio of amounts bound (Z=Y/X)” value did it give?
Answer: 0.3

Question: For B40, which “ratio of amounts bound (Z=Y/X)” value is on record?
Answer: 1.05

Question: How did the “ratio of amounts bound (Z=Y/X)” value turn out when B41 was run?
Answer: 0.25

Question: How did the “ratio of amounts bound (Z=Y/X)” value turn out when B42 was run?
Answer: 0.19

Question: For B43, which “ratio of amounts bound (Z=Y/X)” value is on record?
Answer: 0.4

Question: With B44 as the binder, how does the “ratio of amounts bound (Z=Y/X)” value read?
Answer: 0.46

Question: How did the “ratio of amounts bound (Z=Y/X)” value turn out when B45 was run?
Answer: 0.46

Question: How did the “ratio of amounts bound (Z=Y/X)” value turn out when B46 was run?
Answer: 0.42
